The target of one data set is FLAG-GFP-RADX R389E (human, UniProt Q6NSI4 1-855, R389E). Kind of data set: pull-down.
The target in data set [1] is FLAG-GFP-RADX alanine mutant of residues 365-368 (human, UniProt Q6NSI4 1-855, 4-residue alanine mutation of residues 365-368). Put plainly: pull-down.
A further data set deals with FLAG-GFP-RADX (human, UniProt Q6NSI4 1-855). Put plainly: pull-down.
The target of a further data set is MBP-RADX (Homo sapiens, UniProt Q6NSI4 1-855). Put plainly: EMSA.
Another data set addresses MBP-RADX QVPK (Homo sapiens, UniProt Q6NSI4 1-855, Q451A;V452A;P453A;K454A). Kind of data set: EMSA. Background: Mobility shift assays separate free from complexed probe on a gel.

Changes are numbered by the printed parent chain. Names may count otherwise.

B1: Human RAD51 (natural protein, UniProt Q06609 1-339, looked up)
chain: MAMQMQLEANADTSVEEESFGPQPISRLEQCGINANDVKKLEEAGFHTVEAVAYAPKKELINIKGISEAKADKILAEAAKLVPMGFTTATEFHQRRSEIIQITTGSKELDKLLQGGIETGSITEMFGEFRTGKTQICHTLAVTCQLPIDRGGGEGKAMYIDTEGTFRPERLLAVAERYGLSGSDVLDNVAYARAFNTDHQTQLLYQASAMMVESRYALLIVDSATALYRTDYSGRGELSARQMHLARFLRMLLRLADEFGVAVVITNQVVAQVDGAAMFAADPKKPIGGNIIAHASTTRLYLRKGRGETRICKIYDSPCLPEAEAMFAINADGVGDAKD
Consider B1, for which the binding result (with FLAG-GFP-RADX R389E; in data set [1]; with FLAG-GFP-RADX) was “binds” in each case.

B2: RAD51 K133R (natural protein, human, UniProt Q06609 1-339, looked up)
chain: B1 chain with K133R
B2: in the data set with FLAG-GFP-RADX, the binding result is “binds”.

B3: dT60 (ssDNA)
DNA: TTTTTTTTTTTTTTTTTTTTTTTTTTTTTTTTTTTTTTTTTTTTTTTTTTTTTTTTTTTT
Regarding B3, the binding result in the data set with MBP-RADX and with MBP-RADX QVPK was “binds” each time.

Source of the values: article PMC7935748 (Molecular cell, 2021).
